# Data as given in PMC11102864 (Nature Structural & Molecular Biology, 2024).
# B1: Full-length mouse cortactin (natural protein)
# chain: not shown
# notes: cortactin, mouse, residues 1-546, UniProt Q60598; only residues 21-79 (NtA) and 80-116 (first central repeat) were built in the model; also called full-length cortactin
# Target: Arp3 (subunit of the human Arp2/3 complex, activated conformation at the branch) (human, UniProt P61158 1-418)
# Experiment: cryo-EM structure; actin branches reconstituted from Arp2/3, VVCA, SPIN90, actin and capping protein, then 1.9 uM full-length cortactin and 10 uM phalloidin; 20 mM HEPES pH 7.5, 50 mM KCl, 1 mM EGTA, 1 mM MgCl2, 0.2 mM ATP, 1 mM DTT; room temperature; overall resolution about 3.3 Å
# Details: both partners purified
binder,measurement,value
B1,binding result,binds
